In the FLAb antibody collection (doi:10.7554/elife.23156):

B1: scFv; the commonest letter at each place (parent)
chain 1: EVKLDETGGGLVQPGRPMKLSCVASGFTFSDYWMNWVRQSPEKGLEWVAQIRNKPYNYETYYSDSVKGRFTISRDDSKSSVYLQMNNLRVEDMGIYYCTGSYYGMDYWGQGTSVTVS
chain 2: DVVMTQTPLSLPVSLGDQASISCRSSQSLVHSNGNTYLRWYLQKPGQSPKVLIYKVSNRFSGVPDRFSGSGSGTDFTLKISRVEAEDLGVYFCSQSTHVPWTFGGGTKLEIK

Legend:
fluorescein = variants of: B1; test: Kd (Tite-Seq); conditions: with fluorescein; format: scFv 4-4-20, heavy + light
[1] = variants of: B1; test: yeast surface expression (ratio to wild type); higher = more expressed; conditions: format: scFv 4-4-20, heavy + light

## chain 1 G109A
fluorescein
  Kd: 0.0525 µM
[1]
  yeast surface expression: 0.719

## chain 1 G109C
fluorescein
  Kd: ≥ 10 µM
[1]
  yeast surface expression: 0.39

## chain 1 G109D
fluorescein
  Kd: 3.64 µM
[1]
  yeast surface expression: 0.573

## chain 1 G109E
fluorescein
  Kd: ≥ 10 µM
[1]
  yeast surface expression: 0.504

## chain 1 G109F
fluorescein
  Kd: ≥ 10 µM
[1]
  yeast surface expression: 0.305

## chain 1 G109H
fluorescein
  Kd: ≥ 10 µM
[1]
  yeast surface expression: 0.268

## chain 1 G109I
fluorescein
  Kd: ≥ 10 µM
[1]
  yeast surface expression: 0.269

## chain 1 G109K
fluorescein
  Kd: ≥ 10 µM
[1]
  yeast surface expression: 0.229

## chain 1 G109L
fluorescein
  Kd: ≥ 10 µM
[1]
  yeast surface expression: 0.217

## chain 1 G109M
fluorescein
  Kd: ≥ 10 µM
[1]
  yeast surface expression: 0.213

## chain 1 G109N
fluorescein
  Kd: ≥ 10 µM
[1]
  yeast surface expression: 0.622

## chain 1 G109P
fluorescein
  Kd: ≥ 10 µM
[1]
  yeast surface expression: 0.312

## chain 1 G109Q
fluorescein
  Kd: ≥ 10 µM
[1]
  yeast surface expression: 0.391

## chain 1 G109R
fluorescein
  Kd: ≥ 10 µM
[1]
  yeast surface expression: 0.297

## chain 1 G109S
fluorescein
  Kd: 0.00361 µM
[1]
  yeast surface expression: 0.826

## chain 1 G109T
fluorescein
  Kd: ≥ 10 µM
[1]
  yeast surface expression: 0.551

## chain 1 G109V
fluorescein
  Kd: ≥ 10 µM
[1]
  yeast surface expression: 0.34

## chain 1 G109W
fluorescein
  Kd: ≥ 10 µM
[1]
  yeast surface expression: 0.217

## chain 1 G109Y
fluorescein
  Kd: ≥ 10 µM
[1]
  yeast surface expression: 0.212

## chain 1 M34A
fluorescein
  Kd: 0.00826 µM
[1]
  yeast surface expression: 0.783

## chain 1 M34A N35I
fluorescein
  Kd: ≥ 10 µM
[1]
  yeast surface expression: 0.267

## chain 1 M34A V37I
fluorescein
  Kd: 0.495 µM
[1]
  yeast surface expression: 0.837

## chain 1 M34A W36M
fluorescein
  Kd: ≥ 10 µM
[1]
  yeast surface expression: 0.249

## chain 1 M34A W36T
fluorescein
  Kd: ≥ 10 µM
[1]
  yeast surface expression: 0.544

## chain 1 M34C
fluorescein
  Kd: 0.00326 µM
[1]
  yeast surface expression: 0.712

## chain 1 M34C N35I
fluorescein
  Kd: ≥ 10 µM
[1]
  yeast surface expression: 0.462

## chain 1 M34C N35L V37F
fluorescein
  Kd: 0.0657 µM
[1]
  yeast surface expression: 0.501

## chain 1 M34C V37F
fluorescein
  Kd: ≥ 10 µM
[1]
  yeast surface expression: 0.777

## chain 1 M34C V37H
fluorescein
  Kd: ≥ 10 µM
[1]
  yeast surface expression: 0.466

## chain 1 M34C V37I
fluorescein
  Kd: 0.00708 µM
[1]
  yeast surface expression: 0.76

## chain 1 M34C W36L
fluorescein
  Kd: ≥ 10 µM
[1]
  yeast surface expression: 0.524

## chain 1 M34D
fluorescein
  Kd: ≥ 10 µM
[1]
  yeast surface expression: 0.406

## chain 1 M34D N35Q
fluorescein
  Kd: ≥ 10 µM
[1]
  yeast surface expression: 1.78

## chain 1 M34E
fluorescein
  Kd: ≥ 10 µM
[1]
  yeast surface expression: 0.617

## chain 1 M34E N35H
fluorescein
  Kd: 0.195 µM
[1]
  yeast surface expression: 0.4

## chain 1 M34E W36M
fluorescein
  Kd: ≥ 10 µM
[1]
  yeast surface expression: 0.428

## chain 1 M34F
fluorescein
  Kd: 0.00226 µM
[1]
  yeast surface expression: 0.988

## chain 1 M34F N35E
fluorescein
  Kd: ≥ 10 µM
[1]
  yeast surface expression: 0.811

## chain 1 M34F V37C
fluorescein
  Kd: 0.00104 µM
[1]
  yeast surface expression: 0.75

## chain 1 M34F W36M
fluorescein
  Kd: 0.0562 µM
[1]
  yeast surface expression: 0.872

## chain 1 M34F W36Y
fluorescein
  Kd: 0.00468 µM
[1]
  yeast surface expression: 0.948

## chain 1 M34G
fluorescein
  Kd: 1.23 µM
[1]
  yeast surface expression: 0.682

## chain 1 M34G N35H
fluorescein
  Kd: ≥ 10 µM
[1]
  yeast surface expression: 0.394

## chain 1 M34G N35P
fluorescein
  Kd: 5.37 µM
[1]
  yeast surface expression: 0.778

## chain 1 M34G N35Q
fluorescein
  Kd: ≥ 10 µM
[1]
  yeast surface expression: 0.503

## chain 1 M34G V37R
fluorescein
  Kd: ≥ 10 µM
[1]
  yeast surface expression: 1.62

## chain 1 M34G W36A
fluorescein
  Kd: ≥ 10 µM
[1]
  yeast surface expression: 1.01

## chain 1 M34G W36M
fluorescein
  Kd: ≥ 10 µM
[1]
  yeast surface expression: 1.94

## chain 1 M34H
fluorescein
  Kd: ≥ 10 µM
[1]
  yeast surface expression: 0.737

## chain 1 M34H N35I
fluorescein
  Kd: ≥ 10 µM
[1]
  yeast surface expression: 0.552

## chain 1 M34H N35P
fluorescein
  Kd: ≥ 10 µM
[1]
  yeast surface expression: 2.76

## chain 1 M34H V37P
fluorescein
  Kd: ≥ 10 µM
[1]
  yeast surface expression: 0.3

## chain 1 M34H V37W
fluorescein
  Kd: ≥ 10 µM
[1]
  yeast surface expression: 0.602

## chain 1 M34I
fluorescein
  Kd: 0.00273 µM
[1]
  yeast surface expression: 0.873

## chain 1 M34I N35W
fluorescein
  Kd: ≥ 10 µM
[1]
  yeast surface expression: 0.41

## chain 1 M34I N35Y V37Y
fluorescein
  Kd: ≥ 10 µM
[1]
  yeast surface expression: 0.45

## chain 1 M34I V37I
fluorescein
  Kd: 0.00827 µM
[1]
  yeast surface expression: 0.831

## chain 1 M34I V37M
fluorescein
  Kd: 0.00184 µM
[1]
  yeast surface expression: 0.847

## chain 1 M34I V37Q
fluorescein
  Kd: 0.00184 µM
[1]
  yeast surface expression: 0.474

## chain 1 M34I V37S
fluorescein
  Kd: 0.0353 µM
[1]
  yeast surface expression: 0.776

## chain 1 M34I W36F
fluorescein
  Kd: 0.0107 µM
[1]
  yeast surface expression: 0.811

## chain 1 M34I W36K
fluorescein
  Kd: ≥ 10 µM
[1]
  yeast surface expression: 0.24

## chain 1 M34I W36M
fluorescein
  Kd: 0.712 µM
[1]
  yeast surface expression: 0.783

## chain 1 M34I W36Q
fluorescein
  Kd: ≥ 10 µM
[1]
  yeast surface expression: 0.283

## chain 1 M34I W36S
fluorescein
  Kd: ≥ 10 µM
[1]
  yeast surface expression: 0.556

## chain 1 M34K
fluorescein
  Kd: 0.694 µM
[1]
  yeast surface expression: 0.913

## chain 1 M34K N35A
fluorescein
  Kd: 0.0692 µM
[1]
  yeast surface expression: 0.175

## chain 1 M34K N35S
fluorescein
  Kd: ≥ 10 µM
[1]
  yeast surface expression: 1.46

## chain 1 M34K V37W
fluorescein
  Kd: ≥ 10 µM
[1]
  yeast surface expression: 0.494

## chain 1 M34K W36C
fluorescein
  Kd: ≥ 10 µM
[1]
  yeast surface expression: 0.509

## chain 1 M34K W36F
fluorescein
  Kd: ≥ 10 µM
[1]
  yeast surface expression: 1.23

## chain 1 M34K W36M
fluorescein
  Kd: ≥ 10 µM
[1]
  yeast surface expression: 0.273

## chain 1 M34L
fluorescein
  Kd: 0.00142 µM
[1]
  yeast surface expression: 0.971

## chain 1 M34L N35I
fluorescein
  Kd: ≥ 10 µM
[1]
  yeast surface expression: 0.531

## chain 1 M34L N35P
fluorescein
  Kd: ≥ 10 µM
[1]
  yeast surface expression: 1.48

## chain 1 M34L N35T
fluorescein
  Kd: ≥ 10 µM
[1]
  yeast surface expression: 0.824

## chain 1 M34L V37T
fluorescein
  Kd: ≥ 10 µM
[1]
  yeast surface expression: 0.546

## chain 1 M34L W36V
fluorescein
  Kd: ≥ 10 µM
[1]
  yeast surface expression: 0.558

## chain 1 M34N
fluorescein
  Kd: 2.28 µM
[1]
  yeast surface expression: 0.695

## chain 1 M34N N35H
fluorescein
  Kd: 0.0154 µM
[1]
  yeast surface expression: 1.84

## chain 1 M34N N35V
fluorescein
  Kd: ≥ 10 µM
[1]
  yeast surface expression: 0.505

## chain 1 M34N W36A
fluorescein
  Kd: ≥ 10 µM
[1]
  yeast surface expression: 0.608

## chain 1 M34N W36E
fluorescein
  Kd: ≥ 10 µM
[1]
  yeast surface expression: 0.587

## chain 1 M34N W36Y
fluorescein
  Kd: ≥ 10 µM
[1]
  yeast surface expression: 0.542

## chain 1 M34P
fluorescein
  Kd: ≥ 10 µM
[1]
  yeast surface expression: 0.508

## chain 1 M34P N35D
fluorescein
  Kd: ≥ 10 µM
[1]
  yeast surface expression: 0.873

## chain 1 M34P N35L
fluorescein
  Kd: ≥ 10 µM
[1]
  yeast surface expression: 0.779

## chain 1 M34P N35Q
fluorescein
  Kd: ≥ 10 µM
[1]
  yeast surface expression: 0.194

## chain 1 M34P N35R
fluorescein
  Kd: ≥ 10 µM
[1]
  yeast surface expression: 1.16

## chain 1 M34P V37A
fluorescein
  Kd: ≥ 10 µM
[1]
  yeast surface expression: 0.897

## chain 1 M34P V37L
fluorescein
  Kd: ≥ 10 µM
[1]
  yeast surface expression: 1.01

## chain 1 M34P V37Q
fluorescein
  Kd: 2.23 µM
[1]
  yeast surface expression: 2.03

## chain 1 M34P V37T
fluorescein
  Kd: ≥ 10 µM
[1]
  yeast surface expression: 0.323

## chain 1 M34P W36L
fluorescein
  Kd: ≥ 10 µM
[1]
  yeast surface expression: 0.216

## chain 1 M34P W36N
fluorescein
  Kd: ≥ 10 µM
[1]
  yeast surface expression: 0.506

## chain 1 M34Q
fluorescein
  Kd: 9.5 µM
[1]
  yeast surface expression: 0.801

## chain 1 M34Q N35S
fluorescein
  Kd: ≥ 10 µM
[1]
  yeast surface expression: 0.621

## chain 1 M34Q V37T
fluorescein
  Kd: ≥ 10 µM
[1]
  yeast surface expression: 0.629

## chain 1 M34Q W36E
fluorescein
  Kd: ≥ 10 µM
[1]
  yeast surface expression: 2.19

## chain 1 M34R
fluorescein
  Kd: 9.5 µM
[1]
  yeast surface expression: 0.851

## chain 1 M34R N35M
fluorescein
  Kd: ≥ 10 µM
[1]
  yeast surface expression: 1.25

## chain 1 M34R V37Q
fluorescein
  Kd: 0.205 µM
[1]
  yeast surface expression: 0.276

## chain 1 M34R V37W
fluorescein
  Kd: 0.0353 µM
[1]
  yeast surface expression: 3.88

## chain 1 M34R W36P
fluorescein
  Kd: ≥ 10 µM
[1]
  yeast surface expression: 1.27

## chain 1 M34S
fluorescein
  Kd: 0.151 µM
[1]
  yeast surface expression: 0.652

## chain 1 M34S N35H
fluorescein
  Kd: ≥ 10 µM
[1]
  yeast surface expression: 0.536

## chain 1 M34S W36A
fluorescein
  Kd: ≥ 10 µM
[1]
  yeast surface expression: 0.437

## chain 1 M34S W36K
fluorescein
  Kd: ≥ 10 µM
[1]
  yeast surface expression: 0.646

## chain 1 M34S W36Q
fluorescein
  Kd: ≥ 10 µM
[1]
  yeast surface expression: 0.147

## chain 1 M34T
fluorescein
  Kd: 0.00293 µM
[1]
  yeast surface expression: 0.777

## chain 1 M34T N35D
fluorescein
  Kd: ≥ 10 µM
[1]
  yeast surface expression: 0.415

## chain 1 M34T V37C
fluorescein
  Kd: 0.02 µM
[1]
  yeast surface expression: 0.697

## chain 1 M34T W36L
fluorescein
  Kd: ≥ 10 µM
[1]
  yeast surface expression: 0.455

## chain 1 M34T W36Y
fluorescein
  Kd: ≥ 10 µM
[1]
  yeast surface expression: 0.649

## chain 1 M34V
fluorescein
  Kd: 0.00361 µM
[1]
  yeast surface expression: 0.876
